Measured values published in patent US20250122242A1, “SELECTION SYSTEMS, PEPTIDES DETERMINED THEREWITH, AND METHODS OF USING SAME” (Wisconsin Alumni Research Foundation, priority 2023, published 2025).

Columns and labels:
[1] = target: T1, hIAPP (Homo sapiens, UniProt P10997); test: TEM analysis of hIAPP fibril formation; format: biochemical; settings: 10 μM hIAPP, 40 μM cyclic peptide; for hIAPP fibril formation / aggregation onset by TEM: 2 h; for morphology of hIAPP fibrils by TEM: longer incubation (14 h)
T1 construct: A 1 mg portion of amylin trifluoroacetate salt (Bachem) was purchased as lyophilized solid in a vial; purchased Bachem
T1 sequence (P10997 34-70 limits assumed): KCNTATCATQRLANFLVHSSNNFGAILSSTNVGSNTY
Experimental: Transmission electron microscopy (TEM) was performed at the University of Wisconsin School of Medicine and Public Health Electron Microscopy facility. hIAPP and cyclic peptide were dissolved in 25 mM sodium phosphate buffer (pH 6.8 with 0.4% DMSO) to achieve a molar ratio of 1:4 at concentrations of hIAPP=10 μM and cyclic peptide=40 μM. The sample was incubated quiescently at 32° C. before TEM analysis. 2 μL of the sample was placed onto Formvar-coated copper grids and the excess liquid was blotted away. 2 μL of diluted Nano-W solution was then added to stain the grids and the excess liquid was blotted away. The TEM analysis was performed on Philips CM120 at 80 kV and digital images were obtained with an AMT BioSprint12 camera.

[2] = target: T1, hIAPP; test: Native mass spectrometry (nESI-MS) of peptide-hIAPP interaction; format: binding; settings: peptide:hIAPP stoichiometry of complex
Experimental: hIAPP was dissolved in 200 mM ammonium acetate buffer (pH 7.4) to prepare 100 μM hIAPP stock solution. Cyclic peptide was first dissolved in DMSO to 10 mM, then diluted into the buffer to make 1 mM cyclic peptide stock solution. These stock solutions were diluted into the buffer to achieve final concentrations of [hIAPP]=16 μM and [cyclic peptide]=64 μM. The percentage of DMSO in the final solution was 0.64% for all the samples. Prepared samples were incubated quiescently for 20 min at 32° C. Native ESI-MS analysis was then performed on a SELECT SERIES Cyclic IMS Q-TOF (Waters Corp., Wilmslow, U.K.) equipped with nano-ESI interface.
All the samples were analyzed using positive ionization ESI with a capillary voltage of 1.1 kV. The following instrumental parameters were used: source temperature 100° C.; desolvation temperature 250° C.; sampling cone 30 V; backing pressure 2.5 mbar; trap collision energy 6 V; trap DC −4 V; transfer collision energy 4 V. The system was calibrated with NaI cluster ions from a 2 μg/μL 50:50 2-propanol:water solution. Data were acquired over the m/z range of 50-8000 and processed using MassLynxV4.2 (Waters Corp., Wilmslow, U.K.).

[3] = target: hIAPP-T7n (UniProt P00573+P10997); settings: for Percent total reads (positive selection) / Rank (positive selection): positive selection on hIAPP, high-throughput sequencing; for Rank (positive selection): top enriched sequences
Sequence of hIAPP-T7n (P10997+P00573 fused): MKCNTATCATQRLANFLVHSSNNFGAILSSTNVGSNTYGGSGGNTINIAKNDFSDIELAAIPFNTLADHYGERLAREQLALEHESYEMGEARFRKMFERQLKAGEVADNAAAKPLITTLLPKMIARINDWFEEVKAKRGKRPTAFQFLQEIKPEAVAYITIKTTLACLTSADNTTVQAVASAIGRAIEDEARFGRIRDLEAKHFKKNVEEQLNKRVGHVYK
From the text: Next, we examined if our system could discover inhibitors of other disease-associated APPs. We targeted human islet amyloid polypeptide (hIAPP), which forms amyloid deposits in patients with type-2 diabetes that are hypothesized to contribute to […] dysfunction.^40 To create a selection for hIAPP aggregation inhibitors, we simply cloned hIAPP in place of Aβ42 in our selection circuit (FIG. 2B). We used an SP-encoded CZ6 SICLOPPS library (Z=NDT codon encoded amino acid: R, N, D, C, G, H, I, L, F, S, Y, or V) (˜3×10^6 total sequences). This codon set was chosen to reduce the theoretical library size and facilitate library cloning. The library (total of ˜5×10^6 transformants) was cloned on a SP obtained from an additional 250 hours of PACE using a more stringent selection (FIGS. 10A-10D).
We performed five rounds of selection, diluting the SP pool by ten-fold each round (FIG. 4A). […] To verify that we selected phage with higher activity, we measured the propagation of the SP from each round on hIAPP selection cells, normalizing input phage titers to […] to enable head-to-head comparison between phage pools.
Single colonies of host cells transformed with the appropriate selection plasmids were used to make overnight cultures in 2×YT with maintenance antibiotics. The overnight culture was diluted (1:100) into 4-5 mL DRM with maintenance antibiotics and incubated at 37° C. with shaking until the OD600 of the culture reached ˜0.5, upon which the expanded phage library was added at a titer of 1×10^6 pfu/mL. The culture was incubated at 37° C. with shaking overnight (13-18 h). The next day, the culture was centrifuged at 8,000 rcf for 2 min to obtain the supernatant containing phage. The collected phage was diluted into fresh host cell cultures (10 to 1,000-fold) for the next round of selection, while the rest was stored at 4° C. for downstream analysis. This process was repeated until a significant increase in phage propagation was observed compared with the parent library. Both positive and negative selection rounds were performed using this procedure.
Sample preparation. Phage stocks collected from the final rounds of library selection were first amplified using LY0145 and LY0146. The PCR product was purified, and adapters added using LY0147 and LY0148. The resulting PCR product was purified and barcoded through a final PCR using index primers to add unique indices for shared Illumina NovaSeq sequencing. The final PCR product was purified, and the concentration measured by Nanodrop. Further sample quality control was performed by the University of Wisconsin-Madison Biotechnology Center (UWBC).
High-throughput sequencing and data analysis. High-throughput sequencing was performed by UWBC using a shared sequencing service on the NovaSeq 6000 platform. Sequencing reads were demultiplexed by UWBC and analyzed using custom-written Python scripts.

Row | Substance | hIAPP fibril formation / aggregation onset by TEM [1] | morphology of hIAPP fibrils by TEM [1] | complex with hIAPP detected by native mass spectrometry [2] | Percent total reads (positive selection) [3] | Rank (positive selection) [3] | share of sequencing reads in SP pool ([3]; round 5 of hIAPP positive selection, deep sequencing)
1 | CRCVFSG (cyclised; Circular) [cyclo-CRCVFSG] | delay hNAPP aggregation | do not change the overall appearance | 1:1 complexes | 0.04% | 20 | –
2 | CDLGVFR (cyclised; Circular) [cyclo-CDLGVFR] | delay hNAPP aggregation | do not change the overall appearance | 1:1 complexes | 0.08% | 14 | –
3 | CHVVGVI (cyclised; Circular) [cyclo-CHVVGVI] | no fibrils are observed | No gross differences in morphology | 1:1 complex | 94.40% | 1 | ~95%
